From paper PMC3991421 come the findings set out here.

This experiment concerns the target hydroxycoumarin-labeled M2 C terminus (…) (influenza A virus). Put plainly: […]; fluorescence anisotropy, equilibrium; […], in triplicate. (Fluorescence polarisation rises when a labelled molecule tumbles more slowly, as on binding a larger partner.)

pKd: −log10 of the molar value.

As usually defined, the pKd is −log10 of the Kd, conventionally taken in molar units. A higher pKd goes with a small Kd.

Regarding “purified LC3 (from UniProt Q9GZQ8 1-120) (natural protein)”, the pKd was 5.02.
